Test results from patent publication US20230346885A1 (published 2023).
Positions count from the first letter of the chain named. One block for each binder: values may come before it.

Key:
Assay in all cases: binding, other
[1] = molecular target: T1, KLK4 peptide on HLA (human)
T1 peptide: SIASQCPTA

[2] = molecular target: T2, NPSR1 peptide on HLA (human)
T2 peptide: AINPLIYCV

[3] = molecular target: T3, LGSN peptide on HLA (human)
T3 peptide: ALGETFIRYFV

[4] = molecular target: T4, BRDT peptide on HLA (human)
T4 peptide: RLLDVNNQL

[5] = molecular target: T5, XAGE1 peptide on HLA (human)
T5 peptide: ISQTPGINL

[6] = molecular target: T6, ASCL2 peptide on HLA (human)
T6 peptide: ALSPAERELL

[7] = molecular target: T7, PAEP peptide on HLA (human)
T7 peptide: LLDTDYDNFL

[8] = molecular target: T8, TRPM1 peptide on HLA (human)
T8 peptide: RLLEKHISL

[9] = molecular target: T9, TRPM1 peptide on HLA (human)
T9 peptide: RLGQGVPLV

binding result [1]: recognises
B1: TCR of SEQ ID NOs 403 and 404 (TCR, V domains shown)
Valpha: KQEVTQIPAALSVPEGENLVLNCSFTDSAIYNLQWFRQDPGKGLTSLLLIQSSQREQTSGRLNASLDKSSGRSTLYIAASQPGDSATYLCAVRPRGDSWGKLQFGAGTQVVVTP
Vbeta: NAGVTQTPKFQVLKTGQSMTLQCAQDMNHEYMSWYRQDPGMGLRLIHYSVGAGITDQGEVPNGYNVSRSTTEDFPLRLLSAAPSQTSVYFCASSPTGYGEAFFGQGTRLTVV

binding result [2]: recognises
B2: TCR of SEQ ID NOs 441 and 442 (TCR, V domains shown)
Valpha: QKEVEQNSGPLSVPEGAIASLNCTYSDRGSQSFFWYRQYSGKSPELIMSIYSNGDKEDGRFTAQLNKASQYVSLLIRDSQPSDSATYLCAVNDSGGYQKVTFGTGTKLQVIP
Vbeta: B1 Vbeta with P95Y, T96S, G97P, Y98G, G99N, E100G, A101Y, F102T, Q105S

binding result [3]: recognises
B3: TCR of SEQ ID NOs 415 and 416 (TCR, V domains shown)
Valpha: KQEVTQIPAALSVPEGENLVLNCSFTDSAIYNLQWFRQDPGKGLTSLLLIQSSQREQTSGRLNASLDKSSGRSTLYIAASQPGDSATYLCAVRGYQKVTFGTGTKLQVIP
Vbeta: NAGVTQTPKFQVLKTGQSMTLQCAQDMNHEYMSWYRQDPGMGLRLIHYSVGAGITDQGEVPNGYNVSRSTTEDFPLRLLSAAPSQTSVYFCASSPGIGELFFGEGSRLTVL

binding result [4]: recognises
B4: TCR of SEQ ID NOs 319 and 320 (TCR, V domains shown)
Valpha: KQEVTQIPVALSVPEGENLVLNCSFTDSAIYNLQWFRQDPGKGLTSLLLIQSSQREQTSGRLNASLDKSSGRSTLYIAASQPGDSATYLCAVKGGANNLFFGTGTRLTVIP
Vbeta: NAGVTQTPKFRILKIGQSMTLQCTQDMNHNYMYWYRQDPGMGLKLIYYSVGAGITDKGEVPNGYNVSRSTTEDFPLRLLSAAPSQTSVYFCASRGDGDRSPLHFGNGTRLTVT

binding result [4]: recognises
B5: TCR of SEQ ID NOs 321 and 322 (TCR, V domains shown)
Valpha: B4 Valpha with V9A, K93R, A96Y, N97Q, N98K, L99V, F100T, R106K, T108Q
Vbeta: B4 Vbeta with R11Q, I12V, I15T, T24A, Y31S, K44R, Y47H, K57Q

binding result [5]: recognises
B6: TCR of SEQ ID NOs 615 and 616 (TCR, V domains shown)
Valpha: QKEVEQNSGPLSVPEGAIASLSCTYSDRGSQSFFWYRQYSGKSPELIMSIYSNGDKEDGRFTAQLNKASQYVSLLIRDSQPSDSATYLCAVGAGGYNKLIFGAGTRLAVHP
Vbeta: NAGVTQTPKFRVLKTGQSMTLQCTQDMNHNYMYWYRQDPGMGLRLIHYSVGEGTTAKGEVPDGYNVSRSTTEDFPLRLLSAAPSQTSVYFCASRREGPLHFGNGTRLTVT

binding result [6]: recognises
B7: TCR of SEQ ID NOs 299 and 300 (TCR, V domains shown)
Valpha: QKEVEQNSGPLSVPEGAIASLNCTYSDRGSQSFFWYRQYSGKSPELIMSIYSNGDKEDGRFTAQLNKASQYVSLLIRDSQPSDSATYLCAVDTGRRALTFGSGTRLQVQP
Vbeta: NAGVTQTPKFQVLKTGQSMTLLCAQDMNHNSMYWYRQDPGMGLRLIYYSASEGTTDKGEVPNGYNVSRLNKREFSLRLESAAPSQTSVYFCASSVGGTYGYTFGSGTRLTVV

binding result [5]: recognises
B8: TCR of SEQ ID NOs 613 and 614 (TCR, V domains shown)
Valpha: B7 Valpha with D92N, T93E, R95Y, R96Q, A97K, L98V, S102I, R105K, Q109I
Vbeta: NAGVTQTPKFQVLKTGQSMTLQCAQDMNHEYMYWYRQDPGMGLRLIHYSVGAGITDQGEVPNGYNVSRSTTEDFPLRLLSAAPSQTSVYFCASSRDYDYGQYFGPGTRLTVT

binding result [6]: recognises
B9: TCR of SEQ ID NOs 301 and 302 (TCR, V domains shown)
Valpha: B7 Valpha
Vbeta: B7 Vbeta with L22Q, V95T, T98S

binding result [7]: recognises
B10: TCR of SEQ ID NOs 469 and 470 (TCR, V domains shown)
Valpha: B7 Valpha with D92R, T93R, G94N, R95T, R96D, A97K, T99I, S102T, Q109F
Vbeta: DTGVSQNPRHKITKRGQNVTFRCDPISEHNRLYWYRQTLGQGPEFLTYFQNEAQLEKSRLLSDRFSAERPKGSFSTLEIQRTEQGDSAMYLCASSPRDRSPYGYTFGSGTRLTVV

binding result [2]: recognises
B11: TCR of SEQ ID NOs 437 and 438 (TCR, V domains shown)
Valpha: B7 Valpha with D92G, T93G, R95A, R96D, A97G, S102K, R105H, Q107I, V108I
Vbeta: NAGVTQTPKFRILKIGQSMTLQCTQDMNHNYMYWYRQDPGMGLKLIYYSVGAGITDKGEVPNGYNVSRSTTEDFPLRLELAAPSQTSVYFCASSYGNLGTEAFFGQGTRLTVV

binding result [3]: recognises
B12: TCR of SEQ ID NOs 417 and 418 (TCR, V domains shown)
Valpha: KQEVTQIPAALSVPEGENLVLNCSFTDSAIYNLQWFRQDPGKGLTSLLLIQSSQREQTSGRLNASLDKSSGRSTLYIAASQPGDSATYLCAVRAQGGSEKLVFGKGTKLTVNP
Vbeta: NAGVTQTPKFRILKIGQSMTLQCTQDMNHNYMYWYRQDPGMGLKLIYYSVGAGITDKGEVPNGYNVSRSTTEDFPLRLELAAPSQTSVYFCASSYLGQDPEGAEAFFGQGTRLTVV

binding result [8]: recognises
B13: TCR of SEQ ID NOs 609 and 610 (TCR, V domains shown)
Valpha: B12 Valpha with R93P
Vbeta: NAGVTQTPKFQVLKTGQSMTLQCAQDMNHEYMSWYRQDPGMGLKLIYYSVGAGITDKGEVPNGYNVSRSTTEDFPLRLESAAPSQTSVYFCASTESPYYGYTFGSGTRLTVV

binding result [8]: recognises
B14: TCR of SEQ ID NOs 605 and 606 (TCR, V domains shown)
Valpha: KQEVTQIPAALSVPEGENLVLNCSFTDSAIYNLQWFRQDPGKGLTSLLLIQSSQREQTSGRLNASLDKSSGRSTLYIAASQPGDSATYLCAAATRNNTGKLIFGQGTTLQVKP
Vbeta: NAGVTQTPKFRILKIGQSMTLQCTQDMNHNYMYWYRQDPGMGLKLIYYSVGAGITDKGEVPNGYNVSRSTTEDFPLRLELAAPSQTSVYFCASSKSDLGGYTFGSGTRLTVV

binding result [1]: recognises
B15: TCR of SEQ ID NOs 401 and 402 (TCR, V domains shown)
Valpha: KQEVTQIPAALSVPEGENLVLNCSFTDSAIYNLQWFRQDPGKGLTSLLLIQSSQREQTSGRLNASLDKSSGRSTLYIAASQPGDSATYLCAVSPPAAGNKLTFGGGTRVLVKP
Vbeta: NAGVTQTPKFRILKIGQSMTLQCAQDMNHNYMYWYRQDPGMGLKLIYYSVGAGITDKGEVPNGYNVSRSTTEDFPLRLELAAPSQTSVYFCASSLTWTGGFGYTFGSGTRLTVV

binding result [9]: recognises
B16: TCR of SEQ ID NOs 603 and 604 (TCR, V domains shown)
Valpha: KQEVTQIPAALSVPEGENLVLNCSFTDSAIYNLQWFRQDPGKGLTSLLLIQSSQREQTSGRLNASLDKSSGRSTLYIAASQPGDSATYLCAVRDSWGKFQFGAGTQVVVTP
Vbeta: NAGVTQTPKFQVLKTGQSMTLQCAQDMNHNSMYWYRQDPGMGLRLIYYSASEGTTDKGEVPNGYNVSRLNKREFSLRLESAAPSQTSVYFCASSEWAWGLGTEAFFGQGTRLTVV

binding result [8]: recognises
B17: TCR of SEQ ID NOs 607 and 608 (TCR, V domains shown)
Valpha: KQEVTQIPAALSVPEGENLVLNCSFTDSAIYNLQWFRQDPGKGLTSLLLIQSSQREQTSGRLNASLDKSSGRSTLYIAASQPGDSATYLCAVRGMNTGFQKLVFGTGTRLLVSP
Vbeta: NAGVTQTPKFQVLKTGQSMTLQCAQDMNHEYMSWYRQDPGMGLRLIHYSVGAGITDQGEVPNGYNVSRSTTEDFPLRLLSAAPSQTSVYFCASSPGVTSTEAFFGQGTRLTVV
